± gives the standard deviation.
Test: protein stability index of a GFP-peptide fusion (GPS, HEK-293T) (PSI 1-6); higher = more stable
[1] = treatment: DMSO, c terminus: a fixed tail appended
[2] = treatment: MLN4924 1 uM, 8 h, c terminus: a fixed tail appended
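Further: 24-mer peptide tiles fused after GFP, lentivirally expressed, FACS-sorted into six equal bins by GFP/DsRed ratio, decoded by Illumina sequencing, PSI is the read-weighted mean bin number.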

Row | Sequence | protein stability index [1] | protein stability index [2] | protein stability index (treatment: DMSO, c terminus: native) | protein stability index (treatment: MLN4924 1 uM, 8 h, c terminus: native)
1 | CFGLQPGCLLPDGSRMMAVAALVV [NLN] | 2.47 ± 0.23 | 2.75 ± 0.34 | – | –
2 | CHICHKKLYTGPGLAIHCMQVHKE [ZNF207] | 3.07 ± 0.27 | 3.25 ± 0.39 | – | –
3 | CHPVERGIKSKEAEEYRLKEHYLT [PSD2] | 4.21 ± 0.093 | 4.1 ± 0.2 | – | –
4 | CKKLSLELGGKNPAIIFEDANLDE [ALDH8A1] | 4.4 ± 0.11 | 4.32 ± 0.26 | – | –
5 | CLRDDVVFFIYLYQRWIYRVDPTR [CLPTM1] | 2.77 ± 0.35 | 2.81 ± 0.48 | – | –
6 | CLSCRLFYFKLTDLYKKVKKNSSP [CRY1] | 2.42 ± 0.11 | 2.08 ± 0.44 | – | –
7 | CPEGLEELLSAPPPDLGAQRRHGW [SPSB2] | 3.8 ± 0.34 | 3.83 ± 0.25 | – | –
8 | CQALDANLDANLAFASFTSGVVRI [TLE6] | 2.66 ± 0.67 | 2.56 ± 0.37 | – | –
9 | CRLAKGENGYGFHLNAIRGLPGSF [PDZK1] | 2.08 ± 0.69 | 2.07 ± 0.24 | – | –
10 | CTNTYVTGLSMIANGGAICAVTFF [OR4A15] | 3.25 ± 0.52 | 3.33 ± 0.38 | – | –
11 | CVPGQVFSPDGPSRFRKAYKPEQP [LOXL2] | 3.17 ± 0.19 | 3.33 ± 0.091 | – | –
12 | CWPMMDFLRCVTAALIYFAISITA [CMTM3] | 3.23 ± 0.49 | 3.34 ± 0.26 | – | –
13 | CWSFYGQGRKIAEVCCTSIVYATE [KCTD13] | 2.88 ± 0.6 | 2.97 ± 0.79 | – | –
14 | DAGEGIQCSQRMLSFSDALLSIIA [TMEM175] | 2.25 ± 0.091 | 2.35 ± 0.3 | – | –
15 | DAGPMVVHCSAGVGRTGCFIVIDA [PTPRD] | 2.73 ± 1.3 | 2.7 ± 0.76 | – | –
16 | DAMLKEASGPINFTMFLNLFGEKL [MYL5] | 2.23 ± 0.55 | 2.27 ± 0.28 | – | –
17 | DDDDEEEEVSEVESFILDQDDLEN [ANKRD17] | 5.765 ± 0.056 | 5.68 ± 0.13 | – | –
18 | DDIKESLESEGKNSKKEEPQELLQ [ATE1] | 5.65 ± 0.2 | 5.61 ± 0.13 | – | –
19 | DDLTSVTNHGYRVQVENPERFSSA [TRIM35] | 4.44 ± 0.24 | 4.588 ± 0.031 | – | –
20 | DEDDSEELEEDDGHGAEQAAAFPT [EHMT1] | 5.58 ± 0.27 | 5.7 ± 0.29 | – | –
21 | DEEDCPNPEEYNLDEPNAESDYTY [SRPK2] | 5.57 ± 0.37 | 5.66 ± 0.15 | – | –
22 | DEMLSYLPGGTTGLQLPSTLPVSG [TFE3] | 3.95 ± 0.26 | 4.15 ± 0.21 | – | –
23 | DEVIDVMQENITKVIERGERLDEL [VAMP4] | 4.77 ± 0.32 | 4.88 ± 0.28 | – | –

Row | Sequence | protein stability index [1] | protein stability index [2] | protein stability index (treatment: DMSO, c terminus: native) | protein stability index (treatment: MLN4924 1 uM, 8 h, c terminus: native)
24 | DFDLDLVPWESDIWDINNQICTVK [ATF6] | 3.06 ± 0.3 | 3 ± 0.21 | – | –
25 | DFWLMVWEQKVLVIVMTTRFEEGG [PTPN9] | 2.69 ± 0.77 | 2.58 ± 0.07 | – | –
26 | DGAEIAEKFVFFIGSKNGGKTTII [DYNC2LI1] | 2.26 ± 0.78 | 2.05 ± 0.54 | – | –
27 | DGDDKVFRRAPSWRKRFRPREHHG [PPFIA4] | 3.48 ± 0.55 | 4.58 ± 0.14 | – | –
28 | DKPSEPASEEGSESEGSESSGRSC [SMG5] | 5.56 ± 0.25 | 5.6 ± 0.14 | – | –
29 | DKTCSKTKNKSKHALRKKQLKRQK [FAM9B] | 4.49 ± 0.21 | 4.59 ± 0.23 | – | –
30 | DKVIMKLGKTNAKAVSEMRQKIWN [DYNC2LI1] | 2.31 ± 0.12 | 2.54 ± 0.32 | – | –
31 | DKVSDGVTKSPEKRSSLPRPSSIL [MAP2] | 4.88 ± 0.14 | 4.99 ± 0.26 | – | –
32 | DLDSCSRDGALLGCSLTADGLPLH [MYORG] | 3.32 ± 0.28 | 3.51 ± 0.3 | – | –
33 | DLEVDMNKTEVTPRLWTTCRDGEV [ACSBG2] | 3.96 ± 0.15 | 3.95 ± 0.064 | – | –
34 | DLGHVTRISSPQVEEGDSRFLANE [WEE1] | 4.88 ± 0.29 | 4.96 ± 0.27 | – | –
35 | DLLFIVDTMLEEVENKEKDSNMPH [CEP70] | 2.29 ± 0.24 | 2.76 ± 0.38 | – | –
36 | DLSGIQTSDAAFLTQWKDSLVSLV [ZER1] | 2.37 ± 0.33 | 2.49 ± 0.26 | – | –
37 | DLVPAALGSLTTAQIARSVWRPW [HES6] | – | – | 2.09 ± 0.17 | 2.32 ± 0.43
38 | DPEEAIRHDVIVSIVTAAKKDILL [PDS5B] | 2.3 ± 0.15 | 2.54 ± 0.3 | – | –
39 | DPKITCKQECLITTFQDVYFVSES [TPH1] | 2.5 ± 0.36 | 2.14 ± 0.49 | – | –
40 | DQLNDGQDFAKDLLKTLYNSIKNE [PSD2] | 3.56 ± 0.21 | 3.71 ± 0.32 | – | –
41 | DRARRFEEALRKNTEEQLEIALAP [MTUS2] | 4.9 ± 0.22 | 4.85 ± 0.28 | – | –
42 | DRDGHIKLTDFGFAKKLVDRTWTL [PRKX] | 2.1 ± 0.35 | 2.35 ± 0.42 | – | –
43 | DRTSLATFHEGKHNISHMSMDIAR [WDFY1] | 3.54 ± 0.24 | 3.56 ± 0.33 | – | –
44 | DTFKVPKEMFTVGCCVFAFLVGLL [SLC6A17] | 2.3 ± 0.51 | 2.21 ± 0.6 | – | –
45 | DTMQNIESTIVELGSIFQQLAHMV [STX5] | 2.47 ± 0.13 | 2.52 ± 0.38 | – | –
46 | DTTRQVQRISCFQSTVKCLTVLQR [WDR41] | 2.42 ± 0.33 | 2.63 ± 0.35 | – | –

Row | Sequence | protein stability index [1] | protein stability index [2] | protein stability index (treatment: DMSO, c terminus: native) | protein stability index (treatment: MLN4924 1 uM, 8 h, c terminus: native)
47 | DVQARLNRSDHGIFHSRTSLQKLS [FCHSD1] | 3.09 ± 0.22 | 3.16 ± 0.3 | – | –
48 | DVRQNPCGSKACRRLFGPVDSEQL [CDKN1A] | 3.03 ± 0.2 | 3.12 ± 0.28 | – | –
49 | DWFTSYVKNVVSGGFPIIRDQIFR [FBXO3] | 2.61 ± 0.34 | 2.41 ± 0.39 | – | –
50 | EAAGSFTSSLAQPGAYYPYERTLG [IRX6] | 3.24 ± 0.14 | 3.28 ± 0.42 | – | –
51 | EACMTHLHYKWIPVEDSHTADISS [DUSP5] | 3.53 ± 0.23 | 3.63 ± 0.11 | – | –
52 | EAIKNEMNVMLKSSPVDLVTATDQ [IMPA1] | 4.21 ± 0.11 | 4.67 ± 0.17 | – | –
53 | EAITSASFLEQIMAPLQPSTSRAH [FAM189A2] | 3.52 ± 0.13 | 3.59 ± 0.22 | – | –
54 | EALYAQDPSTGCYMYYFQYLSKTY [KMT5A] | 3.26 ± 0.94 | 2.42 ± 1.1 | – | –
55 | EAVARHMLIFSLALEEPEKMGLQE [DNAAF3] | 2.47 ± 0.55 | 2.28 ± 0.27 | – | –
56 | EAVFLRAVKLYNSGDFRSSTEDME [P3H4] | 3.69 ± 0.36 | 3.73 ± 0.52 | – | –
57 | EDLQDGDVRMGGSFRGAFSNSEKA [NET1] | 4.98 ± 0.63 | 5.252 ± 0.051 | – | –
58 | EDSILGDPKKLLTQHFVQENYLEY [MAGEA3] | 3.75 ± 0.36 | 3.79 ± 0.28 | – | –
59 | EDVTVGRRQAVAWLVAMHKAAKLL [ZFYVE21] | 2.48 ± 0.34 | 2.59 ± 0.35 | – | –
60 | EDYSAEYIIQQGGWGTVFSLESEE [BCL2L13] | 4.17 ± 0.29 | 3.96 ± 0.46 | – | –
61 | EECAKWLLLNNANPNLSNRRGSTP [RIPK4] | 3.56 ± 0.17 | 3.71 ± 0.067 | – | –
62 | EEDKDEKSSIYESDFQIEPGFYAT [MIA2] | 4.61 ± 0.062 | 4.46 ± 0.4 | – | –
63 | EEEEEEEGSGHSTGEDSAFQEPDS [WEE1] | 5.7 ± 0.16 | 5.62 ± 0.11 | – | –
64 | EEFISNTLFKKIQALQKEKETLAV [CCDC6] | 3.27 ± 0.33 | 3.39 ± 0.33 | – | –
65 | EEIDVDGKFIRLKNTSEQDQPMGG [LMNB1] | 5.15 ± 0.46 | 5.47 ± 0.43 | – | –
66 | EELNKEVASNSELVQSSRSEVTEL [KRT16] | 5.51 ± 0.16 | 5.55 ± 0.24 | – | –
67 | EERLERCMSIVTSMTAGVSEREAN [INTS3] | 4.84 ± 0.35 | 4.78 ± 0.29 | – | –
68 | EFIRDILIHPELNEGLMKWENRHE [ELF3] | 2 ± 0.27 | 2.3 ± 0.48 | – | –
69 | EGASPLSERCQRQLQSLCRGLGLG [FANCE] | 3.31 ± 0.13 | 3.02 ± 0.32 | – | –

Row | Sequence | protein stability index [1] | protein stability index [2] | protein stability index (treatment: DMSO, c terminus: native) | protein stability index (treatment: MLN4924 1 uM, 8 h, c terminus: native)
70 | EGEPATQRQDPAAAQEGEDEGASA [GAGE1] | 5.55 ± 0.11 | 5.56 ± 0.26 | – | –
71 | EGNECKKMDMSVLEISGIIMSRVN [PHTF1] | 2.55 ± 0.37 | 2.46 ± 0.31 | – | –
72 | EGRLERRECGLAAPRFSFNDPSGS [IRX6] | 3.79 ± 0.27 | 3.98 ± 0.2 | – | –
73 | EHPNLVRDHVETELLKEAELIRNI [TEKT4] | 4.6 ± 0.12 | 4.56 ± 0.21 | – | –
74 | EHQPDNIKALFRKGKVLAQQGEYS [FKBP8] | 3.97 ± 0.36 | 3.87 ± 0.19 | – | –
75 | EIPENYNSAMPFKILYDDGKMVEE [PTPRD] | 4.55 ± 0.2 | 4.79 ± 0.071 | – | –
76 | EISEAFTSTGFDRHTSPVFSPANP [BCL2L13] | 3.9 ± 0.24 | 3.99 ± 0.25 | – | –
77 | EITTQFLIYASYFALIAVVFLASG [SLC19A2] | 3.12 ± 0.9 | 3.33 ± 0.31 | – | –
78 | EKAHECTDCGKAFLKKSQLTEHKR [ZNF649] | 3.54 ± 0.29 | 3.81 ± 0.38 | – | –
79 | EKFVFFIGSKNGGKTTIILRCLDR [DYNC2LI1] | 3.27 ± 0.27 | 2.53 ± 0.22 | – | –
80 | EKQLAKKEQSKELQMKLEKLREKE [FAM50A] | 5.34 ± 0.35 | 5.17 ± 0.39 | – | –
81 | EKYKPFSQVPTGEVFYYSCEYNFV [CFHR2] | 2.78 ± 1.5 | – | – | –
82 | ELAYMKKNHEEEMKEFSNQVVGQV [KRT13] | 4.7 ± 0.26 | 4.66 ± 0.14 | – | –
83 | ELFYRVNYIGTKNVIETCKEAGVQ [NSDHL] | 2.14 ± 0.21 | 2.08 ± 0.54 | – | –
84 | ELGEEPQPRDEEEAELELLRQFDL [POLD4] | 5.41 ± 0.26 | 5.51 ± 0.3 | – | –
85 | ELIRNIYNSFHKLRDRAERIASRA [SNX8] | 2.22 ± 0.75 | 2.17 ± 0.27 | – | –
86 | ELKKLKNLEGNELQRHADEFLLDL [FUT8] | 3.61 ± 0.25 | 3.59 ± 0.3 | – | –
87 | ELKRLVESRRQQILREFEELHRRL [TRIM39] | 2.44 ± 0.31 | 2.72 ± 0.38 | – | –
88 | ELQSLMHQPKGLEEENAQLRGALQ [PBXIP1] | 4.25 ± 0.23 | 4.04 ± 0.29 | – | –
89 | ELRTAKDSDDDDDVAVTVDRDRFM [STX1A] | 5.37 ± 0.06 | 5.25 ± 0.14 | – | –
